From paper PMC9308819 (Nature Communications, 2022) come the findings set out here.

Positions count from the first letter of the chain named. Names may count otherwise.

The target in one test is T1, Rab34 (Homo sapiens, UniProt Q9BZG1, Q111L).
T1 construct: full-length Rab34 from E. coli, preparatively loaded with GppNHp
T1 sequence (Q9BZG1 1-237 Q111L): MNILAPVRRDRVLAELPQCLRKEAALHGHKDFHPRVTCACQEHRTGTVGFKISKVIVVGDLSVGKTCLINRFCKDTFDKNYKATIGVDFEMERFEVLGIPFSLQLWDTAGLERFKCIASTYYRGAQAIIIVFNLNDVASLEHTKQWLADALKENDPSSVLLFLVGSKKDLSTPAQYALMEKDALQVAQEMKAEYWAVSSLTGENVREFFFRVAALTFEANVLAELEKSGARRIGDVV
Description: nucleotide loading, C18 reversed-phase HPLC of bound nucleotide. The format is binding.

Test [1] concerns the target T2, Rep15, full length (natural N101D variant) (human, UniProt Q6BDI9 1-236, N101D).
T2 construct: also called full-length Rep15; Rab15 effector protein
T2 sequence (looked up): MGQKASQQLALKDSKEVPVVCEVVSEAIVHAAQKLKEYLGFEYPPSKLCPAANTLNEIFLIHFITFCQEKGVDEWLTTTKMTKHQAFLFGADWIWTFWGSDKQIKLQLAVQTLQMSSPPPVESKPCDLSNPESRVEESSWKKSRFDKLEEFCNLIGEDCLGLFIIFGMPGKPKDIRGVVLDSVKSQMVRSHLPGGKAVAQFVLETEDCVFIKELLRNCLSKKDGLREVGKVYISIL
In words: SEC; analytical SEC; 110 µM Rep15 and 121 µM Rab mixed; Superdex 75 10/300 GL; 20 mM Hepes 8.0, 50 mM NaCl, 1 mM MgCl2, 2 mM DTE; room temperature. Conditions: both partners purified. (In general: In gel filtration, larger molecules generally elute earlier.)

Test [2] concerns the target T3, Rep15, full length (natural N101D variant) (human, UniProt Q6BDI9 1-236, N101D).
T3 sequence: T2 sequence (looked up)
In words: ITC. (In general: Isothermal titration calorimetry measures the heat released or taken up as one component is titrated into another.)

Test [3] deals with T2, Rep15, full length (natural N101D …). Description: ITC; 500/600 µM GppNHp/GTP Rab titrated into 50/60 µM Rep15; 20 mM Hepes 8.0, 50 mM NaCl, 1 mM MgCl2, 1 mM TCEP; one-site-binding model. Conditions: both partners purified.
Test [4] deals with T3, Rep15, full length (natural N101D …). Description: ITC. The source holds these as a separate data set.
Test [5] deals with T2, Rep15, full length (natural N101D …). Description: fluorescence polarisation; stopped flow, association; mant-GppNHp Rab15 mixed with increasing Rep15 (2.5–25 µM); 25 °C; 20 mM Hepes 8.0, 50 mM NaCl, 2 mM MgCl2, 2 mM DTE; kobs against Rep15 concentration, koff from the intercept, KD as koff/kon. Conditions: both partners purified. A general note: Fluorescence polarisation rises when a labelled molecule tumbles more slowly, as on binding a larger partner.

The target of test [6] is Rep15, full length (natural N101D variant) (human) (UniProt Q6BDI9). In words: ITC; 500/600 µM GppNHp/GTP Rab titrated into 50/60 µM Rep15; 20 mM Hepes 8.0, 50 mM NaCl, 1 mM MgCl2, 1 mM TCEP; one-site-binding model.

With `Nc1nc2c(ncn2[C@@H]2O[C@H](COP(=O)(O)OP(=O)(O)NP(=O)(O)O)[C@@H](O)[C@H]2O)c(=O)[nH]1` [GppNHp, Guanosine-5′-[β-γ-Imido]-triphosphate], the “nucleotide loading, C18 reversed-phase HPLC of bound nucleotide” value at Rab34 (preparative nucleotide exchange, mixture with GppNH2) was “apart from GppNHp, Rab34 is also bound to GppNH2 (hydrolysis product of GppNHp)”.

For the molecule `Nc1nc2c(ncn2[C@@H]2O[C@H](COP(=O)(O)OP(N)(=O)O)[C@@H](O)[C@H]2O)c(=O)[nH]1` [GppNH2], on Rab34 (formed during loading with GppNHp, mixture with GppNHp), the “nucleotide loading, C18 reversed-phase HPLC of bound nucleotide” value is reported as “apart from GppNHp, Rab34 is also bound to GppNH2 (hydrolysis product of GppNHp)”.

B1: Rab3D, purified, GppNHp-loaded (natural protein, human, UniProt O95716 1-219, looked up)
chain: MASAGDTQAGPRDAADQNFDYMFKLLLIGNSSVGKTSFLFRYADDSFTPAFVSTVGIDFKVKTVYRHDKRIKLQIWDTAGQERYRTITTAYYRGAMGFLLMYDIANQESFAAVQDWATQIKTYSWDNAQVILVGNKCDLEDERVVPAEDGRRLADDLGFEFFEASAKENINVKQVFERLVDVICEKMNESLEPSSSSGSNGKGPAVGDAPAPQPSSCSC
notes: Rab3D, human; source: E. coli BL21 Codon-Plus (DE3)-RIL, purified (Ni Sepharose, TEV cleavage, gel filtration)
The term Kd denotes the equilibrium constant for the complex coming apart. Read a low Kd as a tighter complex. As for B1, the binding result in test [1] is “binds”. The Kd in test [2] was determined as 790 nM.

B2: Rab27A F81Y, purified (natural protein, human, UniProt P51159 1-221, looked up)
chain: MSDGDYDYLIKFLALGDSGVGKTSVLYQYTDGKFNSKFITTVGIDFREKRVVYRASGPDGATGRGQRIHLQLWDTAGQERYRSLTTAFFRDAMGFLLLFDLTNEQSFLNVRNWISQLQMHAYCENPDIVLCGNKSDLEDQRVVKEEEAIALAEKYGIPYFETSAANGTNISQAIEMLLDLIMKRMERCVDKSWIPEGVVRSNGHASTDQLSEEKEKGACGC
notes: Rab27A, human, with F81Y; also called F81Y Rab27A; source: E. coli, purified
For B2, the “fold increase in affinity against wild-type Rab27A” value in test [3] was more than 8 fold. Besides, in test [4], the affinity, expressed as Kd, was 10800 nM.

B3: Rab27A, purified (natural protein)
chain: B2 chain with Y81F
As to B3, in test [4], the Kd was found to be 86200 nM.

B4: Rab15, purified, nucleotide-loaded (natural protein, human, UniProt P59190 1-212, looked up)
chain: MAKQYDVLFRLLLIGDSGVGKTCLLCRFTDNEFHSSHISTIGVDFKMKTIEVDGIKVRIQIWDTAGQERYQTITKQYYRRAQGIFLVYDISSERSYQHIMKWVSDVDEYAPEGVQKILIGNKADEEQKRQVGREQGQQLAKEYGMDFYETSACTNLNIKESFTRLTELVLQAHRKELEGLRMRASNELALAELEEEEGKPEGPANSSKTCWC
notes: Rab15, human; Loaded with GppNHp (aSEC, ITC) or mant-GppNHp / mant-dGppNHp (stopped flow); also called Rab15_(GppNHp); Rab15_(mant-GppNHp); source: E. coli BL21 Codon-Plus (DE3)-RIL, purified (Ni Sepharose, TEV cleavage, gel filtration)
One may read the koff as a measure of how fast the partners let go of each other. The term kon denotes a measure of how fast the partners come together. Usually stoichiometry N stands for a count of units in the complex or per binding partner. Regarding B4, in test [5], the Kd was 580 nM, the koff was determined as 4.73 s⁻¹ and the kon came out at 8.16e+06 M⁻¹ s⁻¹. In test [3], the Kd was determined as 470 ± 120 nM and the “stoichiometry N” value was 1.

B5: Rab3B, purified, GppNHp-loaded (natural protein, human)
chain: MASVTDGKTGVKDASDQNFDYMFKLLIIGNSSVGKTSFLFRYADDTFTPAFVSTVGIDFKVKTVYRHEKRVKLQIWDTAGQERYRTITTAYYRGAMGFILMYDITNEESFNAVQDWATQIKTYSWDNAQVILVGNKCDMEEERVVPTEKGQLLAEQLGFDFFEASAKENISVRQAFERLVDAICDKMSDSLDTDPSMLGSSKNTRLSDTPPLLQQNCSC
notes: Rab3B, human; also called Rab3B_(GppNHp); source: E. coli BL21 Codon-Plus (DE3)-RIL, purified (Ni Sepharose, TEV cleavage, gel filtration)
For B5, in test [1], the binding result is “binds”. Binding in test [2] was characterised by a dissociation constant (Kd) of 2160 nM.

B6: Rab3A Y84F, purified (natural protein)
chain: MASATDSRYGQKESSDQNFDYMFKILIIGNSSVGKTSFLFRYADDSFTPAFVSTVGIDFKVKTIYRNDKRIKLQIWDTAGQERFRTITTAYYRGAMGFILMYDITNEESFNAVQDWSTQIKTYSWDNAQVLLVGNKCDMEDERVVSSERGRQLADHLGFEFFEASAKDNINVKQTFERLVDVICEKMSESLDTADPAVTGAKQGPQLSDQQVPPHQDCAC
Regarding B6, the fold reduction in affinity against wild-type Rab3A in test [6] stood at 23 fold. Moreover, binding in test [4] was put at a Kd of 11100 nM.

B7: Rab3A V61N, purified (natural protein, human, UniProt P20336 1-220, looked up)
chain: B6 chain with V61N, F84Y
notes: Rab3A, human, with V61N; Tag as told for the 6His-tagged Rab3 paralogs in general; source: E. coli BL21 Codon-Plus (DE3)-RIL, purified
As for B7, in test [3], the binding result is given as “binds”. The molecule also gave a Kd in test [4] of 390 nM.
